The IC50 is the point on the concentration scale where inhibition reaches its midpoint. High values mean weaker potency in that assay, low ones greater potency in that assay.

The target of assay [1] is RBDSARS-CoV-2 (SARS-CoV-2 S protein residues 319-539, C-terminal His-tag) (SARS-CoV-2, UniProt P0DTC2 319-539). The assay is described as follows: ELISA. A general note: In an ELISA, binding on a coated surface is turned into a signal by an enzyme label.
The target in assay [2] is RBDSARS-CoV (SARS-CoV S protein residues 318-510, C-terminal His-tag) (SARS-CoV, UniProt P59594 318-510). Kind of assay: ELISA.

B1: 4P-44 (VHH)
VHH: DVQLVESGGGLVQAGGSLRLSCAASGRTFSRYAAGWFRQAPGKEREFVAVIEWNGDSAYYADSVKGRFTISRDNAKNTVYLQMNRLKPEDTAVYICAVGGNHYSRSKYYTADEYDYWGQGTQVTVSS
For the molecule B1, the concentration for half-maximal inhibition (IC50) in assay [1] was less than 10 nM; in assay [2], 100 to 1000 nM.

B2: 5p-117 (VHH)
VHH: DVQLVESGGGLVQAGESLRLSCAASGRTFRNFAAGWFRQTPGKDREFVAVIEYNGDSAYYADSVKGRFTISRDNAKNTVYLQMNRLKPGDTAVYICAIGGNHYDPSKYYIADEYDYWGQGTQVTVSS
Turning to B2, the IC50 in assay [1] and in assay [2] was less than 10 nM in each case.

B3: 4P-71 (VHH)
VHH: HVQLVESGGGLVQAGGSLRLSCAASGRTFSRFAAGWFRQAPGKEREFVAVIDWNGGSAYYADSVKGRFTISRDNAKNTVYLQMNRLKPGDTAVYICAIGGNHYDPSRYYTADEYDYWGQGTQVTVSS
As for B3, the half-maximal inhibitory concentration (IC50) is less than 10 nM in assay [1] and 10 to 100 nM in assay [2].

B4: 5p-120 (VHH)
VHH: HVQLVESGGGLVQAGGSLRLSCAASGRTFSRYAAGWFRQAPGKEREFVAVIEWDGDSAYYADSVKGRFTISRDNAKNTVYLQMNRLKPEDTAVYICAVGGNHYSRSKYYNLDEYDYWGQGTQVTVSS
As for B4, the IC50 in assay [1] and in assay [2] was less than 10 nM throughout.

B5: 5p-34 (VHH)
VHH: QVQLVESGGGLVQAGGSLRLSCTASGRTFSRYAAGWFRQAPGKEREFVAVIEWNGDSAYYTDSAKGRFTISRDNTKNTVYLQMNRLKPEDTAVYICAIGGNHYSPSKYYIADEYDYWGQGTQVTVSS
With B5, the IC50 in assay [1] and in assay [2] was less than 10 nM throughout.

B6: 5p-121 (VHH)
VHH: DVQLVESGGGLVQAGGSLRLSCAASGRTFSRYAAGWFRQAPGKERSFVAVIEWDGDTAYYSDSVKGRFTISRDNAKNTLYLQMNRLKPEDTAVYICAVGGNHYSSSKYYIADEYDYWGQGTQVTVSS
Take B6: the IC50 in assay [1] and in assay [2] was less than 10 nM each time.

B7: 5p-119 (VHH)
VHH: QVQLVESGGGLVQAGGSLRLSCAASRRTFSNYAAGWFRQAPGKEREFVAVIEWNGESAYYADSVKGRFTISRDNAKNTVYLQMNRLKPEDTAIYICAIGGNHYSRSKYYIADEYDYWGQGTQVTVSS
B7: the half-inhibitory concentration (IC50) in assay [1] and in assay [2] was less than 10 nM in each case.

B8: 4P-42 (VHH)
VHH: HVQLVESGGGLVQAGGSLRLSCAASGRTFSRYAAGWFRQAPGKEREFVAVIEWDGDNAYYADSVKGRFTISRDNAKNTVYLQMNRLKPEDTAVYICAVGGNHYSPNKYYTADEYDYWGQGTQVTVSS
Consider B8, for which the IC50 in assay [1] and in assay [2] was less than 10 nM each time.

B9: 5p-25 (VHH)
VHH: HVQLVESGGGLVQAGGSLRLSCAASGHISSRYAMAWFRQGPGKERDFVAGMSSGASTFYAESVKGRFTLSRDNAKNAMYLQMNSLKPEDTAVYYCAADSSPLRYGLSYSSNRYDYWGQGTQVTVSS
Regarding B9, the IC50 in assay [1] and in assay [2] was less than 10 nM each time.

B10: 5p-59 (VHH)
VHH: QVQLVESGGGLVQAGGSLRLSCAVSGRTISTFGMAWFRQAPGKVREFVATITRDEDLTLYADSVKGRFTISRDTAKNTVFLQMNSLKIEDTALYYCAVRRDDSWGYSRQSIEYDYWGQGTQVTVSS
In the case of B10, the IC50 is less than 10 nM in assay [1] and greater than 8000 nM in assay [2].

B11: 5p-1 (VHH)
VHH: QVQLVESGGGLVQAGGSLRLSCAVSGRTGNRWPMGWFRQAPGKEREFVATISWSDSRTYYADSVKGRFTISRDNAKNTVFLQMASLKPEDTAVYYCAAAHARVYGANWSSSNRDDYDSWGQGTQVTVSS
Take B11: the IC50 in assay [1] fell in the range of 10 to 100 nM; in assay [2], 100 to 1000 nM.

B12: 4P-1 (VHH)
VHH: DVQLVESGGGLVQAGGSLRLSCAASGRTGSRYPMGWFRQAPGKEREFVATISWSDSRTYYADSVKGRFTISRDNAKNTVFLQMASLKPEDTAVYYCAAAHARVYGANWSSSNRYDYDSWGQGTQVTVSS
Take B12: the IC50 was in the range of 10 to 100 nM in assay [1] and 1000 to 8000 nM in assay [2].

B13: 5p-2 (VHH)
VHH: QVQLVESGGGLVQAGGSLRLSCAVSGRTGSRWPMGWFRQAPGKEREFVATISWSDSRTYYADSVKGRFTIARDNAKNTVFLQMASLKPEDTAVYYCAAAHGRVYGANWSSTNRYDYDSWGQGTQVTVSS
For B13, the half-inhibitory concentration (IC50) in assay [1] and in assay [2] was 10 to 100 nM in each case.

B14: 5p-5 (VHH)
VHH: QVQLVESGGGLVQAGGSLRLSCAVSGRTGNRWPMGWFRQAPGKEREFVATISWSDSRTYYADSVKGRFTISRDNAKNTVFLQMASLKPEDTAVYYCAAATARVYGANWSSSNRDDYDSWGQGTQVTVSS
For the molecule B14, the IC50 in assay [1] and in assay [2] was 10 to 100 nM throughout.

B15: 4P-46 (VHH)
VHH: HVQLVESGGGLVQAGGSLRLSCAASRIFSTSAMGWFRQAPGKEREFVAAISWSGTNTHYADSVKGRFAISTDNAKNTVYLQMNSLKPEDTAVYYCAQGGWGISQPIEVDYWGKGTQVTVSS
Turning to B15, the IC50 in assay [1] is less than 10 nM; in assay [2], 10 to 100 nM.

B16: 5p-37 (VHH)
VHH: QVQLVESGGGLVQAGGSLRLSCAASRIFSTSAMGWFRQAPGKEREFVAAISWSGTNTHYTDPVKGRFAISTDNAKSTVYLQMNSLKPEDTAVYYCAQGGWGIRQPIEVDYWGKGTQVTVSS
As to B16, the values for the half-inhibitory concentration (IC50) in assay [1] and in assay [2] were less than 10 nM and 10 to 100 nM, respectively.

B17: 4P-47 (VHH)
VHH: HVQLVESGGGLVQAGGSLRLSCAADARFSTSAMGWFRQAPGKEREFVAAISWSGANTHYADTVKGRFTISTDTAKNTVYLQMNSLKPEDTAVYYCAQGGWGITQPISVDYWGKGTQVTVSS
In the case of B17, the IC50 in assay [1] and in assay [2] was less than 10 nM in each case.

B18: 5p-124 (VHH)
VHH: HVQLVESGGGLVQAGDSLRLSCAASRIFSTSAMGWFRQAPGKEREFVAAISWSGGNVHYLDSVKGRFAISADNSKSTVFLQMNSLKPEDTAVYYCAQGGWGIRQVIEVDYWGKGTQVTVSS
Consider B18, for which the half-inhibitory concentration (IC50) in assay [1] and in assay [2] was less than 10 nM in each case.

B19: 4P-92 (VHH)
VHH: QVQLVESGGGLVQTGGSLRLSCAVSGYTFSTFPTAWFRQAPGKEREFVAGIRWNGGSRDYTEYADFVKGRFTISRDNAKNMVYLQMISLKPEDTALYYCAASHGVIDGTSANDYRYWGQGTQVTVSS
For the molecule B19, the concentration for half-maximal inhibition (IC50) is less than 10 nM in assay [1] and 1000 to 8000 nM in assay [2].

B20: 5p-26 (VHH)
VHH: DVQLVESGGGLVQAGGSLRLSCAASGRTLRSYNMGWFRQPPGKEREFVAALSWTGLGTYYADSVKGRFTISRDITKNTLYLQMDSLQPEDTANYYCAADSTLDRLHSAESDYRYWGQGTQVTVSS
In the case of B20, the IC50 was less than 10 nM in assay [1] and greater than 8000 nM in assay [2].

Source of the values: patent US20250002563A1 (UNIVERSITY OF PITTSBURGH OF THE COMMONWEALTH SYSTEM OF …, published 2025).
